From IntAct's records for PubMed 31515488

B1: Ligand of Numb protein X 2 (Homo sapiens), Q8N448 (parent)
chain: MGTTSDEMVSVEQTSSSSLNPLCFECGQQHWTRENHLYNYQNEVDDDLVCHICLQPLLQPLDTPCGHTFCYKCLRNFLQEKDFCPLDRKRLHFKLCKKSSILVHKLLDKLLVLCPFSSVCKDVMQRCDLEAHLKNRCPGASHRRVALERRKTSRTQAEIENENGPTLLDPAGTLSPEADCLGTGAVPVERHLTSASLSTWSEEPGLDNPAFEESAGADTTQQPLSLPEGEITTIEIHRSNPYIQLGISIVGGNETPLINIVIQEVYRDGVIARDGRLLAGDQILQVNNYNISNVSHNYARAVLSQPCNTLHLTVLRERRFGNRAHNHSDSNSPREEIFQVALHKRDSGEQLGIKLVRRTDEPGVFILDLLEGGLAAQDGRLSSNDRVLAINGHDLKYGTPELAAQIIQASGERVNLTIARPGKPQPGNTIREAGNHSSSSQHHTPPPYYSRPSSHKDLTQCVTCQEKHITVKKEPHESLGMTVAGGRGSKSGELPIFVTSVPPHGCLARDGRIKRGDVLLNINGIDLTNLSHSEAVAMLKASAASPAVALKALEVQIVEEATQNAEEQPSTFSENEYDASWSPSWVMWLGLPSTLHSCHDIVLRRSYLGSWGFSIVGGYEENHTNQPFFIKTIVLGTPAYYDGRLKCGDMIVAVNGLSTVGMSHSALVPMLKEQRNKVTLTVICWPGSLV
partner: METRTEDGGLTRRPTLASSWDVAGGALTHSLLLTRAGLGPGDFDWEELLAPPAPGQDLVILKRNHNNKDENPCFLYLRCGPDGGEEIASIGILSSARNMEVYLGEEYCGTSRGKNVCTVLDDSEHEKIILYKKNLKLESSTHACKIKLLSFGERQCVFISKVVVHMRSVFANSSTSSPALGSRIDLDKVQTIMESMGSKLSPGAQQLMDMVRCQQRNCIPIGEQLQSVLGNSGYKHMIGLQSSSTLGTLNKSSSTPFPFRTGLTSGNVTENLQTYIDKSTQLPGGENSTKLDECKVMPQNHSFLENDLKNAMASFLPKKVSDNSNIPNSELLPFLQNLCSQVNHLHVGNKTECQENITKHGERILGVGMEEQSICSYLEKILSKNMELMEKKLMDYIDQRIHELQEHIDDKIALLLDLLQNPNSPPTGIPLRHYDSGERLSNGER
B2: Dystrobrevin beta (Homo sapiens), O60941 (parent)
chain: MIEESGNKRKTMAEKRQLFIEMRAQNFDVIRLSTYRTACKLRFVQKRCNLHLVDIWNMIEAFRDNGLNTLDHTTEISVSRLETVISSIYYQLNKRLPSTHQISVEQSISLLLNFMIAAYDSEGRGKLTVFSVKAMLATMCGGKMLDKLRYVFSQMSDSNGLMIFSKFDQFLKEVLKLPTAVFEGPSFGYTEHSVRTCFPQQRKIMLNMFLDTMMADPPPQCLVWLPLMHRLAHVENVFHPVECSYCRCESMMGFRYRCQQCHNYQLCQNCFWRGHAGGPHSNQHQMKEHSSWKSPAKKLSHAISKSLGCVPTREPPHPVFPEQPEKPLDLAHIVPPRPLTNMNDTMVSHMSSGVPTPTKRLQYSQDIPSHLADEHALIASYVARLQHCARVLDSPSRLDEEHRLIARYAARLAAEAGNVTRPPTDLSFNFDANKQQRQLIAELENKNREILQEIQRLRLEHEQASQPTPEKAQQNPTLLAELRLLRQRKDELEQRMSALQESRRELMVQLEELMKLLKEEEQKQAAQATGSPHTSPTHGGGRPMPMPVRSTSAGSTPTHCPQDSLSGVGGDVQEAFAQGTRRNLRNDLLVAADSITNTMSSLVKELHSAEEGAEEEEEKMQNGKDRG
B3: Radial spoke head protein 3 homolog (Homo sapiens), Q86UC2 (parent)
chain: MTVKPAKAASLARNLAKRRRTYLGGAAGRSQEPEVPCAAVLPGKPGDRNCPEFPPPDRTLGCWATDAAPAAGLCGAGSEPSIAPTSCAGNLPSRPPPLLSPLLASRNPCPWHYLHLSGSHNTLAPTCFKAKLHRKRGSQPPDMASALTDRTSRAPSTYTYTSRPRALPCQRSRYRDSLTQPDEEPMHYGNIMYDRRVIRGNTYALQTGPLLGRPDSLELQRQREARKRALARKQAQEQLRPQTPEPVEGRKHVDVQTELYLEEIADRIIEVDMECQTDAFLDRPPTPLFIPAKTGKDVATQILEGELFDFDLEVKPVLEVLVGKTIEQSLLEVMEEEELANLRASQREYEELRNSERAEVQRLEEQERRHREEKERRKKQQWEIMHKHNETSQKIAARAFAQRYLADLLPSVFGSLRDSGYFYDPIERDIEIGFLPWLMNEVEKTMEYSMVGRTVLDMLIREVVEKRLCMYEHGEDTHQSPEPEDEPGGPGAMTESLEASEFLEQSMSQTRELLLDGGYLQRTTYDRRSSQERKFMEERELLGQDEETAMRKSLGEEELS
partner: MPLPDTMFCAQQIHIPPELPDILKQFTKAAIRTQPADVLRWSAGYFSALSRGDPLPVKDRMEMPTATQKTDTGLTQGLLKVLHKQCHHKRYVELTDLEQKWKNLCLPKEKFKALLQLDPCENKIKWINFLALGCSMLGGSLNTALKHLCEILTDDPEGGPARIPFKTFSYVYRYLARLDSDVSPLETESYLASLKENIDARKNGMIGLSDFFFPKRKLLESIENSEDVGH
B4: Caspase recruitment domain-containing protein 9 (Homo sapiens), Q9H257 (parent)
chain: MSDYENDDECWSVLEGFRVTLTSVIDPSRITPYLRQCKVLNPDDEEQVLSDPNLVIRKRKVGVLLDILQRTGHKGYVAFLESLELYYPQLYKKVTGKEPARVFSMIIDASGESGLTQLLMTEVMKLQKKVQDLTALLSSKDDFIKELRVKDSLLRKHQERVQRLKEECEAGSRELKRCKEENYDLAMRLAHQSEEKGAALMRNRDLQLEIDQLKHSLMKAEDDCKVERKHTLKLRHAMEQRPSQELLWELQQEKALLQARVQELEASVQEGKLDRSSPYIQVLEEDWRQALRDHQEQANTIFSLRKDLRQGEARRLRCMEEKEMFELQCLALRKDSKMYKDRIEAILLQMEEVAIERDQAIATREELHAQHARGLQEKDALRKQVRELGEKADELQLQVFQCEAQLLAVEGRLRRQQLETLVLSSDLEDGSPRRSQELSLPQDLEDTQLSDKGCLAGGGSPKQPFAALHQEQVLRNPHDAGLSSGEPPEKERRRLKESFENYRRKRALRKMQKGWRQGEEDRENTTGSDNTDTEGS

Variants of: B1
Conditions: with paat_human PAAT

Row | Variant | effect of a mutation on the interaction
1 | V145I | with no effect
2 | T183I | with no effect

Variants of: B2
Conditions: with cep63_human CEP63, Q96MT8
Sequence of cep63_human CEP63, Q96MT8 (Q96MT8 whole entry): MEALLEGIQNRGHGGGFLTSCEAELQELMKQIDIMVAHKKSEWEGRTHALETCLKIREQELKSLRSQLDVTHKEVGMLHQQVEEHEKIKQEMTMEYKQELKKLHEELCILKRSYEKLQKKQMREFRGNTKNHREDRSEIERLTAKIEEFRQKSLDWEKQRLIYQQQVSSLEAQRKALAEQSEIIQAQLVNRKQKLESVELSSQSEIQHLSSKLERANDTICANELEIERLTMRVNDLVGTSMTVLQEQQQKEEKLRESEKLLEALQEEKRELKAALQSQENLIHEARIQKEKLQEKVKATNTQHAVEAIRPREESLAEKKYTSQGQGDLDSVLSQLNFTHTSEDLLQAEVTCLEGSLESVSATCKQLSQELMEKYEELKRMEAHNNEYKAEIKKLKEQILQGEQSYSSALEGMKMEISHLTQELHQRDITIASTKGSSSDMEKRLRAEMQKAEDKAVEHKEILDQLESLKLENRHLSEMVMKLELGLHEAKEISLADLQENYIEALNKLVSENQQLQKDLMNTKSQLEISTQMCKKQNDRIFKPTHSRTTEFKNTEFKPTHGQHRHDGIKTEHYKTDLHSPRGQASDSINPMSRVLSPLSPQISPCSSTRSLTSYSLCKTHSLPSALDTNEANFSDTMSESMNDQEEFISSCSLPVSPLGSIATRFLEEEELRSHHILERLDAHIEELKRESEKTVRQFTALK

Row | Variant | effect of a mutation on the interaction
3 | R80H | with no effect

Variants of: B2
Conditions: with traf2_human TRAF2, Q12933
Sequence of traf2_human TRAF2, Q12933 (Q12933 whole entry): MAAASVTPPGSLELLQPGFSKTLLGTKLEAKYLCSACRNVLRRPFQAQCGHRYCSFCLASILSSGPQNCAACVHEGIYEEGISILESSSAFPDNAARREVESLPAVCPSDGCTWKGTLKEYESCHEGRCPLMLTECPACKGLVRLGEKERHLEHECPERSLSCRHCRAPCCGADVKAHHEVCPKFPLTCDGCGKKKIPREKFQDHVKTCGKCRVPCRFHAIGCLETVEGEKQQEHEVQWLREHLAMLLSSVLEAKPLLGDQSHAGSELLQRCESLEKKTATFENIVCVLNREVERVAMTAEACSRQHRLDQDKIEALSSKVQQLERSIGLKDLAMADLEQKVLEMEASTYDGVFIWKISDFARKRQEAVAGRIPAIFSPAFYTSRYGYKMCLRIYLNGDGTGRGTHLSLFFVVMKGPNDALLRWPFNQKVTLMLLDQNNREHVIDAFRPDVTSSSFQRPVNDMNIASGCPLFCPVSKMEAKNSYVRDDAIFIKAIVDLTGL

Row | Variant | effect of a mutation on the interaction
4 | R80H | with no effect
5 | S396G | with no effect

Variants of: B2
Conditions: with tera_human VCP

Row | Variant | effect of a mutation on the interaction
6 | R80H | with no effect
7 | S396G | with no effect

Variants of: B2
Conditions: with abi2_human ABI2, Q9NYB9
Sequence of abi2_human ABI2, Q9NYB9 (Q9NYB9 whole entry): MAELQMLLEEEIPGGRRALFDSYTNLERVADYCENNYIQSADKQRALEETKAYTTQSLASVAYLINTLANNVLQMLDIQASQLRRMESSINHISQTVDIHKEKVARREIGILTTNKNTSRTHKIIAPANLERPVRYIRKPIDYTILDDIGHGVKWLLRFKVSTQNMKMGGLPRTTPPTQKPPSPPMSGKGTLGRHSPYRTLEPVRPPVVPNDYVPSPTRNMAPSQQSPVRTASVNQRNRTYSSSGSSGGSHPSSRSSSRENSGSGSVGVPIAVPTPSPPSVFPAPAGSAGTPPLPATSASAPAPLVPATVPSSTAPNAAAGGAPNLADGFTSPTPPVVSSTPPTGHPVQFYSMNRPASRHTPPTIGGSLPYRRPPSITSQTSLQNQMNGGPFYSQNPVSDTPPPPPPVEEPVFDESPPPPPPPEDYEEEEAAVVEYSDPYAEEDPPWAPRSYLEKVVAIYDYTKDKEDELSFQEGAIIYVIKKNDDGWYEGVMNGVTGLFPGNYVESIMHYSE

Row | Variant | effect of a mutation on the interaction
8 | R80H | with no effect

Variants of: B2
Conditions: with lipa1_human PPFIA1, Q13136
Sequence of lipa1_human PPFIA1, Q13136 (Q13136 whole entry): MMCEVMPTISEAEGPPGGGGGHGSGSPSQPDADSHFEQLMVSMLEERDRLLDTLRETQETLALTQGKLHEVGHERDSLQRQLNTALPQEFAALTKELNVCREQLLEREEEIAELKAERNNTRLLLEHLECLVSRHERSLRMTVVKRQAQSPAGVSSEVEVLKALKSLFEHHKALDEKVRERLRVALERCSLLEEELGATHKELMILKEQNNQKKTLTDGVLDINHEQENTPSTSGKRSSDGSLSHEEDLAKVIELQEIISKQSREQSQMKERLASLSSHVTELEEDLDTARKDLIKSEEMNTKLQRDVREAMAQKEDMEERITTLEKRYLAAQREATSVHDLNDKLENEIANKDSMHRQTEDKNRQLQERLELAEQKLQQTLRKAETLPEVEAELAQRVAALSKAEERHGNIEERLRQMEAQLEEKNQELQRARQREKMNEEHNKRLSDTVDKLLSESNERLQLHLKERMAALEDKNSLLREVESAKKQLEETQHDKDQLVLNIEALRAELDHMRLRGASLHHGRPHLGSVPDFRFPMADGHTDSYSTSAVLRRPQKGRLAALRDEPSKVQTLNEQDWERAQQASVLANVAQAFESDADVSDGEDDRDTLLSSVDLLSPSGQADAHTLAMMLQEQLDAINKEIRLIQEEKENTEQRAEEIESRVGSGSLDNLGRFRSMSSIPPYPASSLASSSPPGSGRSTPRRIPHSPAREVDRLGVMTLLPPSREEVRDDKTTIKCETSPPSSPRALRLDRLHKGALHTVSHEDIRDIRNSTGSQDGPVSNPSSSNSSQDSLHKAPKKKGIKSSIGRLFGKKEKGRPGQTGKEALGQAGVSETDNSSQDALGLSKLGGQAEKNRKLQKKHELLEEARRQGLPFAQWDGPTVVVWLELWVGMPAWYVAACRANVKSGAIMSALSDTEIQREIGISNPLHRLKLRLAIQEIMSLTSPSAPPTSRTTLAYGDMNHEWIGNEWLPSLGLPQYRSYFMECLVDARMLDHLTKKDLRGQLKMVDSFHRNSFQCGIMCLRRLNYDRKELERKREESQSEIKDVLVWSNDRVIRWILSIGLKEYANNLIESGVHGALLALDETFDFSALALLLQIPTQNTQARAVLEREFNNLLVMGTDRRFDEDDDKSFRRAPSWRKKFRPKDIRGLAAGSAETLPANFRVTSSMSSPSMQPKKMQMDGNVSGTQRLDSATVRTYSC

Row | Variant | effect of a mutation on the interaction
9 | S396G | with no effect

Variants of: B2
Conditions: with dmd_human DMD

Row | Variant | effect of a mutation on the interaction
10 | S396G | with no effect

Variants of: B3
Conditions: with rop1l_human ROPN1L

Row | Variant | effect of a mutation on the interaction
11 | R398Q | with no effect
12 | N201S | with no effect
13 | M439T | with no effect
14 | R213Q | with no effect
15 | R213W | with no effect
16 | G518D | with no effect
17 | E484K | with no effect

Variants of: B4
Conditions: with tri23_human TRIM23, P36406
Sequence of tri23_human TRIM23, P36406 (P36406 whole entry): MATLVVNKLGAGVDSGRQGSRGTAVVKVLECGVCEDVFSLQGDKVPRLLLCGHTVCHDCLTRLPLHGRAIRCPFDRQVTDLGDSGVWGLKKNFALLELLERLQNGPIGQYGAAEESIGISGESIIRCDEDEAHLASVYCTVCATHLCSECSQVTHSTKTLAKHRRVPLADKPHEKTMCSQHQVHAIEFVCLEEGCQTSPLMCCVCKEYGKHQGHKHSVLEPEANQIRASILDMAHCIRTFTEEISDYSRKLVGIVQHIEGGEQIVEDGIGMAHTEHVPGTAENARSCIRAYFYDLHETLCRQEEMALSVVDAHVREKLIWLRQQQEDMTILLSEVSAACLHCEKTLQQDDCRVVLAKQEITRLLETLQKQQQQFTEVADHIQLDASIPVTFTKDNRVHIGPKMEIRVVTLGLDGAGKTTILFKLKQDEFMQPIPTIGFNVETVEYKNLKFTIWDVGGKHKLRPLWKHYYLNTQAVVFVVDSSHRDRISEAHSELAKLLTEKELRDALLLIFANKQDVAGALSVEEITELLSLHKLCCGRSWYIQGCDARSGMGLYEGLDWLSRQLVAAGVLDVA

Row | Variant | effect of a mutation on the interaction
18 | R173H | with no effect

Variants of: B4
Conditions: with KRT19, P08727
Sequence of KRT19, P08727 (P08727 whole entry): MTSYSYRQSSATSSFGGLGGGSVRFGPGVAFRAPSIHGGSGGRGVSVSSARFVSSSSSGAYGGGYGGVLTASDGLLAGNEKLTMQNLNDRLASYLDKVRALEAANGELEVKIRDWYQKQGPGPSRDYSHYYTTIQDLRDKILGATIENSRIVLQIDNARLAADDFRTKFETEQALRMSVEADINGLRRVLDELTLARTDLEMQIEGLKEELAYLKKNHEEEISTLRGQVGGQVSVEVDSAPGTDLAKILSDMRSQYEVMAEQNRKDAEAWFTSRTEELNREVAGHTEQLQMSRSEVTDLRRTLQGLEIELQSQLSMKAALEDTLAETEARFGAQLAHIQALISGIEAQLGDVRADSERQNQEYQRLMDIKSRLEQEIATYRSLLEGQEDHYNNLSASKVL

Row | Variant | effect of a mutation on the interaction
19 | R173H | with no effect

Variants of: B4
Conditions: with KIAA0408, Q6ZU52
Sequence of KIAA0408, Q6ZU52 (Q6ZU52 whole entry): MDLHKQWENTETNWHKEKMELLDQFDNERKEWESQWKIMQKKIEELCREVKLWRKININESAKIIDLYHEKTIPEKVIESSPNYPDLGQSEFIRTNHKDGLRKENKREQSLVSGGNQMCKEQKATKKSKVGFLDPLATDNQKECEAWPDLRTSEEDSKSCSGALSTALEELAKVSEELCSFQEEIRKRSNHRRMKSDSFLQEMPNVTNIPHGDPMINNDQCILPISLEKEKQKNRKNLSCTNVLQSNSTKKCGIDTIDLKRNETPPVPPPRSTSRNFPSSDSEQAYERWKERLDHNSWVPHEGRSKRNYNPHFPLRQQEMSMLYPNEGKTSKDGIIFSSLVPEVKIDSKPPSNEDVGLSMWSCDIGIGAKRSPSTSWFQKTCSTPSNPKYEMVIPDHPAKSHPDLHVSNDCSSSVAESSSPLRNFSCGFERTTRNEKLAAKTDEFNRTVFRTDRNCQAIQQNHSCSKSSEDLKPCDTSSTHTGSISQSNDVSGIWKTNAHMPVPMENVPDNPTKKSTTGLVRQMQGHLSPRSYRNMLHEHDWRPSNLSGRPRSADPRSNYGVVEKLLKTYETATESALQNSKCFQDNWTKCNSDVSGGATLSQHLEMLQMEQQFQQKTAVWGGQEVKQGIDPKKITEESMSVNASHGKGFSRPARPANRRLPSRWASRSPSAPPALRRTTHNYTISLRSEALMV

Row | Variant | effect of a mutation on the interaction
20 | S12N | with no effect
